Assays:
[1] = in vivo
[2] = monotherapy cohort (N=10), initial cutoff
[3] = monotherapy cohort (N=10), Grade 1

Molecule: zimberelimab: antagonistic PD-1 antibody, immune checkpoint inhibitor
- Any SAEs Leading to DC [1]: 8 (21) n (%)
- Any SAEs Leading to Study Drug Discontinuation [1]: 9 (18.0) n (%)
- Any SAEs, events [1]: 30 n
- Any SAEs, subjects [1]: 18 (47.4) n (%)
- Any TEAEs of Grade 3 or Higher, events [1]: 41 n
- Any TEAEs of Grade 3 or Higher, subjects [1]: 20 (52.6) n (%)
- Any TEAEs that are immune-related [1]: 24 (48.0) n (%)
- Any TEAEs, events [1]: 271 n
- Any TEAEs, subjects [1]: 36 (94.7) n (%)
- Grade ≥3 TEAE Acute respiratory failure, events [1]: 0 n
- Grade ≥3 TEAE Acute respiratory failure, subjects [1]: 0 n (%)
- Grade ≥3 TEAE Anaemia, events [1]: 2 n
- Grade ≥3 TEAE Anaemia, subjects [1]: 2 (5.3) n (%)
- Grade ≥3 TEAE Asthenia, events [1]: 2 n
- Grade ≥3 TEAE Asthenia, subjects [1]: 2 (5.3) n (%)
- Grade ≥3 TEAE Chronic obstructive pulmonary disease, events [1]: 0 n
- Grade ≥3 TEAE Chronic obstructive pulmonary disease, subjects [1]: 0 n (%)
- Grade ≥3 TEAE Dyspnoea, events [1]: 3 n
- Grade ≥3 TEAE Dyspnoea, subjects [1]: 3 (7.9) n (%)
- Grade ≥3 TEAE Fatigue, events [1]: 0 n
- Grade ≥3 TEAE Fatigue, subjects [1]: 0 n (%)
- Grade ≥3 TEAE Hyperglycaemia, events [1]: 2 n
- Grade ≥3 TEAE Hyperglycaemia, subjects [1]: 2 (5.3) n (%)
- Grade ≥3 TEAE Hyperkalaemia, events [1]: 0 n
- Grade ≥3 TEAE Hyperkalaemia, subjects [1]: 0 n (%)
- Grade ≥3 TEAE Hypertension, events [1]: 0 n
- Grade ≥3 TEAE Hypertension, subjects [1]: 0 n (%)
- Grade ≥3 TEAE Hypokalaemia, events [1]: 3 n
- Grade ≥3 TEAE Hypokalaemia, subjects [1]: 3 (7.9) n (%)
- Grade ≥3 TEAE Hypoxia, events [1]: 1 n
- Grade ≥3 TEAE Hypoxia, subjects [1]: 1 (2.6) n (%)
- Grade ≥3 TEAE Myocardial infarction, events [1]: 1 n
- Grade ≥3 TEAE Myocardial infarction, subjects [1]: 1 (2.6) n (%)
- Grade ≥3 TEAE Pericardial effusion, events [1]: 1 n
- Grade ≥3 TEAE Pericardial effusion, subjects [1]: 1 (2.6) n (%)
- Grade ≥3 TEAE Pleural effusion, events [1]: 2 n
- Grade ≥3 TEAE Pleural effusion, subjects [1]: 2 (5.3) n (%)
- Grade ≥3 TEAE Pneumonia, events [1]: 2 n
- Grade ≥3 TEAE Pneumonia, subjects [1]: 2 (5.3) n (%)
- Grade ≥3 TEAE Pneumonitis, events [1]: 2 n
- Grade ≥3 TEAE Pneumonitis, subjects [1]: 2 (5.3) n (%)
- Grade ≥3 TEAE Pulmonary embolism, events [1]: 3 n
- Grade ≥3 TEAE Pulmonary embolism, subjects [1]: 3 (7.9) n (%)
- Grade ≥3 TEAE Respiratory failure, events [1]: 0 n
- Grade ≥3 TEAE Respiratory failure, subjects [1]: 0 n (%)
- Grade ≥3 TEAE Sepsis, events [1]: 0 n
- Grade ≥3 TEAE Sepsis, subjects [1]: 0 n (%)
- Grade ≥3 TEAE Septic shock, events [1]: 1 n
- Grade ≥3 TEAE Septic shock, subjects [1]: 1 (2.6) n (%)
- Grade ≥3 TEAE Spinal compression fracture, events [1]: 2 n
- Grade ≥3 TEAE Spinal compression fracture, subjects [1]: 2 (5.3) n (%)
- Immune-related TEAE Acute respiratory failure [1]: 0 n (%)
- Immune-related TEAE Bronchospasm [1]: 0 n (%)
- Immune-related TEAE Bulbar palsy [1]: 0 n (%)
- Immune-related TEAE Colitis [1]: 0 n (%)
- Immune-related TEAE Contrast media reaction [1]: 1 (2.0) n (%)
- Immune-related TEAE Diabetes mellitus [1]: 1 (2.0) n (%)
- Immune-related TEAE Diabetic ketoacidosis [1]: 1 (2.0) n (%)
- Immune-related TEAE Drug eruption [1]: 1 (2.0) n (%)
- Immune-related TEAE Erythema [1]: 1 (2.0) n (%)
- Immune-related TEAE Eyelid oedema [1]: 0 n (%)
- Immune-related TEAE Flushing [1]: 1 (2.0) n (%)
- Immune-related TEAE Generalised oedema [1]: 0 n (%)
- Immune-related TEAE Hyperthyroidism [1]: 1 (2.0) n (%)
- Immune-related TEAE Hypothyroidism [1]: 4 (8.0) n (%)
- Immune-related TEAE Idiopathic urticaria [1]: 0 n (%)
- Immune-related TEAE Immune-mediated enterocolitis [1]: 1 (2.0) n (%)
- Immune-related TEAE Infusion related reaction [1]: 0 n (%)
- Immune-related TEAE Lichen planus [1]: 0 n (%)
- Immune-related TEAE Mouth ulceration [1]: 0 n (%)
- Immune-related TEAE Myocarditis [1]: 0 n (%)
- Immune-related TEAE Myositis [1]: 1 (2.0) n (%)
- Immune-related TEAE Pancreatitis [1]: 0 n (%)
- Immune-related TEAE Pneumonitis [1]: 7 (14.0) n (%)
- Immune-related TEAE Pneumonitis Grade ≥3 [1]: 3 (6) n (%)
- Immune-related TEAE Pruritus [1]: 8 (16.0) n (%)
- Immune-related TEAE Rash [1]: 6 (12.0) n (%)
- Immune-related TEAE Rash maculo-papular [1]: 1 (2.0) n (%)
- Immune-related TEAE Rash pustular [1]: 0) n (%)
- Immune-related TEAE Respiratory failure [1]: 1 (2.0) n (%)
- Immune-related TEAE Rheumatoid arthritis [1]: 0 n (%)
- Immune-related TEAE Rhinitis allergic [1]: 0 n (%)
- Immune-related TEAE Seasonal allergy [1]: 0 n (%)
- Immune-related TEAE Stomatitis [1]: 0 n (%)
- Immune-related TEAE Thyroiditis [1]: 0 n (%)
- Immune-related TEAE Tracheal obstruction [1]: 0 n (%)
- Immune-related TEAE Type I diabetes mellitus [1]: 1 (2.0) n (%)
- Immune-related TEAE Urticaria [1]: 0 n (%)
- Immune-related TEAE Wheezing [1]: 0 n (%)
- Infusion-related reactions [1]: 2 (4) n (%)
- Rash [1]: 6 (12) n (%)
- SAE Anaemia, events [1]: 0 n
- SAE Anaemia, subjects [1]: 0 n (%)
- SAE Asthenia, events [1]: 2 n
- SAE Asthenia, subjects [1]: 2 (5.3) n (%)
- SAE Chronic obstructive pulmonary disease, events [1]: 0 n
- SAE Chronic obstructive pulmonary disease, subjects [1]: 0 n (%)
- SAE Myocardial infarction, events [1]: 1 n
- SAE Myocardial infarction, subjects [1]: 1 (2.6) n (%)
- SAE Pleural effusion, events [1]: 3 n
- SAE Pleural effusion, subjects [1]: 2 (5.3) n (%)
- SAE Pneumonia, events [1]: 2 n
- SAE Pneumonia, subjects [1]: 2 (5.3) n (%)
- SAE Pneumonitis, events [1]: 1 n
- SAE Pneumonitis, subjects [1]: 1 (2.6) n (%)
- SAE Pulmonary embolism, events [1]: 3 n
- SAE Pulmonary embolism, subjects [1]: 3 (7.9) n (%)
- SAE Septic shock, events [1]: 1 n
- SAE Septic shock, subjects [1]: 1 (2.6) n (%)
- SAE Spinal compression fracture, events [1]: 2 n
- SAE Spinal compression fracture, subjects [1]: 2 (5.3) n (%)
- TEAE Constipation, events [1]: 6 n
- TEAE Constipation, subjects [1]: 4 (10.5) n (%)
- TEAE Decreased appetite, events [1]: 6 n
- TEAE Decreased appetite, subjects [1]: 6 (15.8) n (%)
- TEAE Diarrhoea, events [1]: 7 n
- TEAE Diarrhoea, subjects [1]: 6 (15.8) n (%)
- TEAE Dyspnoea, events [1]: 9 n
- TEAE Dyspnoea, subjects [1]: 7 (18.4) n (%)
- TEAE Fatiguc, events [1]: 11 n
- TEAE Fatiguc, subjects [1]: 11 (28.9) n (%)
- TEAE Nausea, events [1]: 7 n
- TEAE Nausea, subjects [1]: 7 (18.4) n (%)
- TEAE Pneumonia, events [1]: 2 n
- TEAE Pneumonia, subjects [1]: 2 (5.3) n (%)
- TEAE Pneumonitis, events [1]: 7 n
- TEAE Pneumonitis, subjects [1]: 6 (15.8) n (%)
- TEAE Pruritus, events [1]: 6 n
- TEAE Pruritus, subjects [1]: 6 (15.8) n (%)
- TEAE Pyrexia, events [1]: 4 n
- TEAE Pyrexia, subjects [1]: 4 (10.5) n (%)
- TEAE Rash, events [1]: 8 n
- TEAE Rash, subjects [1]: 3 (7.9) n (%)
- TEAE Vomiting, events [1]: 3 n
- TEAE Vomiting, subjects [1]: 3 (7.9) n (%)
- TEAEs leading to study drug mod. int. [1]: 12 (24.0) n (%)
- TEAEs leading to study drug mod. int., related to study treatment [1]: 7 (14.0) n (%)
- TEAEs leading to zim discon., related to zim [1]: 9 (18.0) n (%)
- TEAEs leading to zim mod./int., related to zim [1]: 7 (14.0) n (%)
- grade 3 treatment-emergent adverse events [1]: 58%
- tolerability [1]: well tolerated

B1: domvanalimab: anti-TIGIT antibody with engineered IgG1 Fc, reduced FcγR binding; heavy chain SEQ ID NO: 12, light chain SEQ ID NO: 13 (antibody)
heavy: EVQLVESGGGLVQPGGSLRLSCAASGFTFSNFGMHWVRQAPGKGLEWVAFISSGSSSIYYADTVKGRFTISRDNAKNSLYLQMNSLRAEDTAVYYCARMRLDYYAMDYWGQGTMVTVSSASTKGPSVFPLAPSSKSTSGGTAALGCLVKDYFPEPVTVSWNSGALTSGVHTFPAVLQSSGLYSLSSVVTVPSSSLGTQTYICNVNHKPSNTKVDKKVEPKSCDKTHTCPPCPAPEAAGGPSVFLFPPKPKDTLMISRTPEVTCWVDVSHEDPEVKFNWYVDGVEVHNAKTKPREEQYNSTYRWSVLTVLHQDWLNGKEYKCKVSNKALPAPIEKTISKAKGQPREPQVYTLPPSRDELTKNQVSLTCLVKGFYPSDIAVEWESNGQPENNYKTTPPVLDSDGSFFLYSKLTVDKSRWQQGNVFSCSVMHEALHNHYTQKSLSLSPGK
light: DIQMTQSPSSLSASVGDRVTITCRASKSISKYLAWYQQKPGKAPKLLIYSGSTLQSGVPSRFSGSGSGTDFTLTISSLQPEDFATYYCQQHNEYPWTFGGGTKVEIKRTVAAPSVFIFPPSDEQLKSGTASWCLLNNFYPREAKVQWKVDNALQSGNSQESVTEQDSKDSTYSLSSTLTLSKADYEKHKVYACEVTHQGLSSPVTKSFNRGEC
- SAE decreased appetite (monotherapy cohort (N=10)): 10%
- SAE dyspnea (monotherapy cohort (N=10)): 10%
- SAE hyponatremia (monotherapy cohort (N=10)): 10%
- SAE peritonitis bacterial (monotherapy cohort (N=10)): 10%
- SAE pleural effusion (monotherapy cohort (N=10)): 10%
- discontinued domvanalimab due to a TEAE (monotherapy cohort (N=10)): 30%
- dose delays/interruptions due to a TEAE (monotherapy cohort (N=10)): 10%
- SAEs considered related to domvanalimab [2]: none
- TEAE dyspnea regardless of causality [2]: 30%
- all other TEAEs, each [2]: ≤ 10%
- participants with SAEs [2]: 40%
- participants with at least 1 TEAE [2]: 100%
- participants with domvanalimab-related TEAEs [2]: 30%
- total number of SAEs [2]: 5
- domvanalimab-related TEAE fatigue [3]: 10%
- domvanalimab-related TEAE hyperglycemia [3]: 10%
- domvanalimab-related TEAE nausea [3]: 10%
- domvanalimab-related TEAE pruritus [3]: 10%
- deaths due to treatment-related AEs (whole study, initial cutoff): No deaths

From patent US20250179176A1, “ANTI-TIGIT ANTIBODIES AND USES OF THE SAME” (ARCUS BIOSCIENCES, INC., priority 2022, published 2025)
